Assay results: patent US20250092140A1 (SHENGHE CHINA BIOPHARMACEUTICAL, published 2025)

T1: human-NKP30-His (human, UniProt O14931 19-138)
T1 construct: Bought protein; also called NKP30 protein; NKP30-his protein; not shown: His tag
T1 sequence (looked up): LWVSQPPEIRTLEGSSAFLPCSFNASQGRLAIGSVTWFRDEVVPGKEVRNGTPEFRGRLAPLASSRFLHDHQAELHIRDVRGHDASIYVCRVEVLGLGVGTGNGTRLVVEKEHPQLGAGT


biological target: T1, human-NKP30-His; assay: ELISA, human-NKP30-His coated
Method: The human-NKP30-His (purchased from ACRO Biosystems) was diluted to 0.5 μg/mL using pH 7.4 PBS buffer and 100 μL per well was added to a 96-well ELISA plate and coated overnight at 4° C. The plates were closed with 1% BSA blocking solution for 1 hour and washed 3 times with PBST. […] The plate was washed 3 times with PBST and HRP-labelled goat anti-human IgG Fc was diluted 1:20000 with sample diluent, 100 μL for each well was added and incubated for 1 h at room temperature. After washing the plate 4 times with PBST, 100 μL of TMB substrate was added into each well and incubated for 10 min at room temperature, avoiding light. Then 100 μL of 1 M HCl was added into each well to terminate the colour development reaction. The absorbance value of each well in the 96-well plate was measured on a multifunctional enzyme standard at a wavelength of 450 nm and a reference wavelength of 570 nm, absorbance value (OD) per well=OD_{450 nm}−OD_{570 nm}. The concentration of the constructed antibody was logarithmically used as the horizontal coordinate, the measured absorbance value per well as the vertical coordinate, and the Sigmoidal dose-response (Variable Slope) method (Graph Pad Prism Software, Graph Pad Software, San Diego, California) was selected for non-linear regression to obtain the binding curve between the target antibody and NKP30 protein.

Row | Binder | binding result
1 | constructed antibody B23 (bispecific antibody, human IgG4 S228P, kappa, IgG4 subtype) heavy: not shown light: DIVMTQSPATLSVTPGDRVSLSCRASQSISDYLHWYQQKSHESPRLLIKYASQSISGIPSRFSGSGSGSDFTLSINSVEPEDVGVYYCQNGHSFPLTFGAGTKLELKRTVAAPSVFIFPPSDEQLKSGTASVVCLLNNFYPREAKVQWKVDNALQSGNSQESVTEQDSKDSTYSLSSTLTLSKADYEKHKVYACEVTHQGLSSPVTKSFNRGEC | binds
2 | constructed antibody A24 (bispecific antibody, human IgG1, kappa, IgG1 subtype) heavy: not shown light: DIVMTQSPATLSVTPGDRVSLSCRASQSISDYLHWYQQKSHESPRLLIKYASQSISGIPSRFSGSGSGSDFTLSINSVEPEDVGVYYCQNGHSFPLTFGAGTKLELKRTVAAPSVFIFPPSDEQLKSGTASVVCLLNNFYPREAKVQWKVDNALQSGNSQESVTEQDSKDSTYSLSSTLTLSKADYEKHKVYACEVTHQGLSSPVTKSFNRGEC | binds
3 | constructed antibody D28 (bispecific antibody, human IgG4 S228P, kappa, IgG4 subtype) heavy: not shown light: DIVMTQSPATLSVTPGDRVSLSCRASQSISDYLHWYQQKSHESPRLLIKYASQSISGIPSRFSGSGSGSDFTLSINSVEPEDVGVYYCQNGHSFPLTFGAGTKLELKRTVAAPSVFIFPPSDEQLKSGTASVVCLLNNFYPREAKVQWKVDNALQSGNSQESVTEQDSKDSTYSLSSTLTLSKADYEKHKVYACEVTHQGLSSPVTKSFNRGEC | binds
4 | constructed antibody A25 (bispecific antibody, human IgG1, kappa, IgG1 subtype) heavy: not shown light: DIVMTQSPATLSVTPGDRVSLSCRASQSISDYLHWYQQKSHESPRLLIKYASQSISGIPSRFSGSGSGSDFTLSINSVEPEDVGVYYCQNGHSFPLTFGAGTKLELKRTVAAPSVFIFPPSDEQLKSGTASVVCLLNNFYPREAKVQWKVDNALQSGNSQESVTEQDSKDSTYSLSSTLTLSKADYEKHKVYACEVTHQGLSSPVTKSFNRGEC | binds
